What was measured:
[1] = molecular target: T1, mutant Huntingtin exon 1 (mHttQ51) (Homo sapiens, UniProt P42858, INS38QQQQQQQQQQQQQQQQQQQQQQQQQQQQQQQ); assay: In vitro filter trap aggregation assay of mutant Huntingtin exon 1; format: biochemical
T1 construct: mutant Huntingtin exon 1 containing a pathogenic stretch of 51 glutamines (mHttQ51); GST (N, cleaved yes); made in house; host or cells: E. coli Rosetta 2(DE3) pLysS
Protocol: Mutant Huntingtin and PolyQ51 aggregation reactions were performed at concentration 3 μM of mHttQ51, 0.044 Units/μl acTEV protease (Invitrogen, Carlsbad, CA, USA), and respective concentrations of Ovalbumin (Sigma) or purified NAC chaperone variants. Aggregation was conducted in TEV reaction buffer (Invitrogen) and incubated at 30° C. AtxQ78 was buffer exchanged into TEV reaction buffer using 7K MWCO Zeba Spin Desalting Columns (Thermo Fisher) to initiate aggregation. AtxQ78 aggregation reactions were performed at 30 μM of Ataxin-3 in reaction buffer (20 mM sodium phosphate pH 7.5, 25 mM NaCl, 6 mM MgCl2, 2 mM DTT, 5% (v/v) glycerol) and incubated at 37° C. Samples at varied time-points were then taken and combined in a 1:1 ratio with a 4% (w/v) SDS, 100 mM DTT solution, boiled for 5 min at 95° C., and stored at −20° C. Samples were then filtered through a 0.22 μm cellulose acetate membrane (Whatman) and washed with 0.1% (w/v) SDS. Membrane was probed using an S-tag antibody (Abcam) for mHttQ51 and PolyQ51, and with a His-tag antibody (Abcam) for AtxQ78.

[2] = molecular target: GdmCl-denatured firefly luciferase (Photinus pyralis, UniProt P08659); assay: Luciferase refolding assay; format: biochemical; details: denatured luciferase preincubated 1:1 for 15 min at room temperature before adding Hsp70/Hsp40
[3] = molecular target: T2, Aβ40 (Homo sapiens, UniProt P05067); assay: Chemical crosslinking (BS3) and mass spectrometry of NAC-Aβ40 complexes; format: binding; details: NAC and Aβ40 both 18 μM, 37° C. 2 h
T2 construct: Aβ40 peptide was expressed and purified as described previously; made in house; host or cells: E. coli BL21 (DE3)
Protocol: Aβ40 (18 μM) was incubated with purified NAC in a 1:1 molar ratio in Aβ aggregation buffer (20 mM sodium phosphate pH 7.5, 0.2 mM EDTA, 0.01% (w/v) NaN3) at 37° C. for 2 h. BS^3-h^12d^12 was added to the proteins at 20× molar excess and incubated for 30 min at 37° C. before quenching with 50 mM NH4HCO3. Crosslinked samples were gel-filtrated using a Superdex 75 column (GE Healthcare) and fractions containing crosslinked Aβ40-NAC complexes subjected to co-immunoprecipitation using Aβ antibody 6E10 (Biozol). Captured proteins were denatured with 1×SDS sample buffer under non-reducing conditions to avoid splitting of the antibody in heavy and light chains.
Gel pieces containing the crosslinked complexes were washed with 25 mM ammonium bicarbonate (pH 7.8) for 1 h with shaking. The solution was removed and the pieces destained three times with 25 mM ammonium bicarbonate in 60% acetonitrile. Gel pieces were dehydrated with 100% acetonitrile for 10 min and left to air-dry in a laminar flowhood for 1 h. Rehydration of the gel pieces was achieved by adding 0.1 mg/ml trypsin solution and incubating the samples on ice for 30 min. Excess trypsin was removed and the samples were incubated at 37° C. and 1000 rpm overnight. […] The extracts were pooled and concentrated using a SpeedVac before being analyzed using a nanoACQUITY LC-system coupled to a Synapt HDMS G2Si mass spectrometer. […]

T1 sequence (P42858 with tags, fused parts or gaps with the stated changes limits assumed): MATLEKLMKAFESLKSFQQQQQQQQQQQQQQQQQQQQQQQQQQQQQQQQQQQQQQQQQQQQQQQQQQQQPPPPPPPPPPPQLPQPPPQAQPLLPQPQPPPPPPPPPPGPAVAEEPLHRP
Chain of GdmCl-denatured firefly luciferase (P08659 whole entry): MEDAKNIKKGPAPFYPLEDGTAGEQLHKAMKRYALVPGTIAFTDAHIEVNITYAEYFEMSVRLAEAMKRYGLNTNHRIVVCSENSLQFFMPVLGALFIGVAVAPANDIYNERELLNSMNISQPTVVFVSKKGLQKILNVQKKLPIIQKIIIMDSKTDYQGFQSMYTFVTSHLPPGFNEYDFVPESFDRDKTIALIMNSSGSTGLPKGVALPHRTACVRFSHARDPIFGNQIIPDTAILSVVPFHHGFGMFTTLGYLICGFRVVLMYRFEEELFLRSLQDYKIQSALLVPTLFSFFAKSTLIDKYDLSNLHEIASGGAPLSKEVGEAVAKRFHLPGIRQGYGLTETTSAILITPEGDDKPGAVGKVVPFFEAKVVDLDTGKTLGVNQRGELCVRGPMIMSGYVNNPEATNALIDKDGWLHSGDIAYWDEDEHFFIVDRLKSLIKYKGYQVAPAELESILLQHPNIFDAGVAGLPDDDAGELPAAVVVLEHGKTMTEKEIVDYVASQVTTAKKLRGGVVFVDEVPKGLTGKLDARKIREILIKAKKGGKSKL

B1: NAC: nascent polypeptide-associated complex, heterodimer of αNAC and βNAC; species not given at the place (C. elegans icd-1/icd-2 when overexpressed in worms) (protein)
chain 1: MTGSTETRQKEVKEPQVDVSDDSDNEAVEQELTEEQRRVAEAAGLGDHIDKQAKQSRSEKKARKLFSKLGLKQVTGVSRVCIRKSKNILFVINKPDVFKSPGSDTYIIFGEAKIEDLTQHAQMSAIENLKPTREAPQLKTVEEDENEDVEEDSTGIEEKDIELVISQANTTRNKAIRALKEADNDIVNAIMSLTM
chain 2: MMDSKAIAERIKKLQAQQEHVRIGGKGTPRRKKKVIHKTAAADDKKLQSNLKKLSVTNIPGIEEVNMIKDDGTVIHFNNPKVQTSVPANTFSVTGSADNKQITEMLPGILNQLGPESLTHLKKLANNVTKLGPDGKGEDEDVPELVGDFDAASKNETKADEQ
- concentration dependence of mHttQ51 aggregation suppression ([1]; 1×, 5× or 10× molar excess of human NAC): concentration dependent
- disaggregation of preformed mHttQ51 aggregates ([1]; 6-hour time delay between initiation of aggregation and addition, 5× molar excess): did not disaggregate preformed mHttQ51 aggregates
- luciferase refolding by the Hsp70/Hsp40 system [2]: strongly enhanced over levels of just Hsp70/Hsp40 refolding
- interaction with Aβ40 (crosslinking-MS) [3]: interaction of Aβ40 with the N-terminal domains of NAC

From patent publication US12338268B2, “Compositions and methods for treating protein aggregation-associated diseases” (The Board of Trustees of the Leland Stanford Junior …, priority 2019, dated 2025)
